Test results taken from patent publication US20150086555A1.

B1: TCN-540 (5060_F05) (antibody, V domains shown)
VH: QVQLVQSGGGVVQPGRSLRLSCAASGFTFSSYAMHWVRQAPGKGLEWVAIISYDGNDQYYTDSVKGRFTISRDSSKVYLQMHRLRPEDTAVYYCAKEFETSGYFHGSFDYWGQGILVTVSS
VL: QSALTQPASVSGSPGQSITISCTGTSSDVGGYNYVSWYQQHPGKAPKLLIYEVTNWPSGVSNRFSGSKSGNTASLTISGLQAEDEADYYCSSYAGSSTWVFGGGTRVTVL
B2: TCN-539 (5056_A08) (antibody, V domains shown)
VH: QVQLVESGGGVVQPGRSLRLSCAASEITFITYAMHWVRQAPGKGLEWVALISDDGSNKFYADSVKGRFTISRDNSKNTLYLQMNSLRAEDTAAYYCAREGVYFDSGTYRGYFDYWGQETLVTVSS
VL: EIVLTQSPATLSLSPGERATLSCRASQSVSSYLAWYQQKPGQAPRLLIYDASNRATGIPARFSGSGSGTDFTLTISSLEPEDFAVYYCQQRSHWPPITFGQGTRLEIK
B3: TCN-504 (3251_K17) (antibody, V domains shown)
VH: QVQLQESGPGLVKPSETLSLTCAVSGVSISNIDFYWGWIRQPPGKGLEWIGNIYYTGITFYNPSLSSRVAISIDTSKNQFSLTLTSVTAADTAMYYCARHYGDSEAINDAFDIWGQGTMLTVSS
VL: EIVMTQSPATLSVSPGERATLSCRASQSVGNSLAWYQQRPGQAPRLLIYGASTRATGIPPRFSGSGSGTEFTLTISSLQTEDFAVYYCQQYINWRPLSFGGGTKVEIK
B4: TCN-546 (5089_L08) (antibody, V domains shown)
VH: QVQLQQWGAGLLKPSETLSLTCGVYGGSLSDYYWSWIRQPPGKGLEWIGEINHSGGTNYNPSLKRRVTISVDTSKKQFSLKMNSVTAADTAVYYCARGTDPDTEVYCRAGNCAAFDFWGQGTLVTVSS
VL: EIVLTQSPGTLSLSPGERATLSCRASHFVIGRAVAWYQQKPGQAPRLLIYGASSRATGIPDRFSGSGSGTDFTLTISRLETEDFAVFYCQHYGSSPRYAFGQGTKLEIK
B5: TCN-528 (5087_P17) (antibody, V domains shown)
VH: QVQLVQSGSEVKKPGASVKVSCKASGYTFTNYDINWIRQAPGQGLEWMGWINPNSGTTGSAQRFQGRVTITVDTSITTVYMELSSLRSDDTAIYYCARGRELLRLQHFLTDSQSERRDCFDPWGQGTLVTVSS
VL: DIQMTQSPSSLSASVGDRVTITCRANQDIGIYLNWYQQNPGKVPKLLLHGASSLQGGVPSRFSASGSGTDFTLTIHSLQPEDLATYYCQQSRRLPYTFGQGTRVELK
B6: TCN-543 (5081_G23) (antibody, V domains shown)
VH: QVHLVQSGAEVRKPGDSVKVSCKTSGYTFSTYPVAWVRQVPGQGLEWMGWISTYNGNTNFAQNFQGRVTLTTDTTTNTAYMEVRSLKFDDTAVYYCARVEGSYRDFWNNQNRFDPWGQGTLVTVSS
VL: SYVLTQPPSVSVAPGQTARISCGGSNIGGKSVHWYQQKPGQAPVLVVYDDSGRPSGIPERFSGSNSGDTATLTISRVEAGDEADYFCQVWDNFGGVFGTGTKVTVL
B7: TCN-538 (3206_O17) (antibody, V domains shown)
VH: QITLKESGPTLVKPTQTLTLTCVFSGFSLSITGVRVGWIRQPPGKALEWLALISWDDEKHYSPSLQSRLTITKDTSKNQVVLTMTNLDPVDTATYYCARSTDRGHVLRYFGWMLPGDAFDVWGQGTMVTVSS
VL: DIVMTQSPDFLPVSLGERATINCKSSQRVLYSSNNKNYLAWYQLKPGQPPKLIIYWASTRESGVPDRFSGSGSGTEFTLTISSLQAEDVAVYYCQQYYSRPYTFGQGTKLEIK
B8: TCN-527 (5086_C06) (antibody, V domains shown)
VH: QVQLQESGPGLVKPSETLSLNCAVSGGSISNYYWSWIRQPPGKGLEWIGYISYNGRPKYNPSLTSRVTISVDTSKDQFSLELRSVTAADTALYYCARETRFGELLSPYDAFEIWGQGTMVTVSS
VL: DIQMTQSPSSLSASVGDRVTMTCRASQNIRSYLNWYQQRPGTAPKLLIYAASTLHSGVPSRFSGGGSGTDFTLTINNLQPEDFASYYCQQSYDNPQTFGQGTKVEIK

Assays:
Conditions in all cases: remark: other sources report otherwise
[1] = molecular target: recombinant soluble homotrimeric HA of A/Egypt/3300-NAMRU3/08 (H5N1) (Influenza A virus A/Egypt/3300-NAMRU3/2008(H5N1)); assay: trimeric HA microarray, transfection supernatant set 5
[2] = molecular target: T1, recombinant soluble homotrimeric HA of A/northern shoveler/California/HKWF115/07 (H6) (Influenza A virus A/northern shoveler/California/HKWF115/2007(H6N1)); assay: as above
[3] = molecular target: recombinant soluble homotrimeric HA of A/Hong Kong/156/97 (H5N1) (Influenza A virus A/Hong Kong/156/97 (H5N1)); assay: as above
[4] = molecular target: T2, recombinant soluble homotrimeric HA of A/duck/Yangzhou/02/05 (H8N4) (Influenza A virus A/duck/Yangzhou/02/2005(H8N4)); assay: as above
[5] = molecular target: recombinant soluble homotrimeric HA of A/Netherlands/219/03 (H7N7) (Influenza A virus A/Netherlands/219/03(H7N7)); assay: as above
[6] = molecular target: recombinant soluble homotrimeric HA of A/Solomon Islands/3/06 (H1N1) (Influenza A virus A/Solomon Islands/3/2006(H1N1)); assay: as above
[7] = molecular target: recombinant soluble homotrimeric HA of A/Vietnam/1203/04 (H5N1) (Influenza A virus A/VietNam/1203/2004(H5N1)); assay: as above
[8] = molecular target: recombinant soluble homotrimeric HA of A/South Carolina/1/18 (H1N1) (Influenza A virus A/South Carolina/1/18 (H1N1)); assay: as above
[9] = molecular target: recombinant soluble homotrimeric HA of A/Indonesia/5/05 (H5N1) (Influenza A virus A/Indonesia/5/2005(H5N1)); assay: as above
[10] = molecular target: recombinant soluble homotrimeric HA of A/Japan/305/57 (H2N2) (Influenza A virus A/Japan/305/1957(H2N2)); assay: as above
[11] = molecular target: recombinant soluble homotrimeric HA of A/Anhui/1/05 (H5N1) (Influenza A virus A/Anhui/1/2005(H5N1)); assay: as above
[12] = molecular target: recombinant soluble homotrimeric HA of A/California/4/09 (H1N1) (Influenza A virus A/California/04/2009(H1N1)); assay: as above
[13] = molecular target: recombinant soluble homotrimeric HA of A/chicken/Vietnam/NCVD-016/08 (H5N1) (Influenza A virus A/chicken/Vietnam/NCVD-016/2008(H5N1)); assay: as above
[14] = molecular target: T2, recombinant soluble homotrimeric HA of …; assay: trimeric HA microarray, transfection supernatant set 3
[15] = molecular target: T3, recombinant soluble homotrimeric HA of A/Wisconsin/67/05 (H3N2) (Influenza A virus A/Wisconsin/67/2005(H3N2)); assay: as above
[16] = molecular target: T4, recombinant soluble homotrimeric HA of A/swine/Ontario/01911-2/99 (H4N6) (Influenza A virus A/Swine/Ontario/01911-2/99 (H4N6)); assay: as above
[17] = molecular target: T2, recombinant soluble homotrimeric HA of …; assay: trimeric HA microarray, transfection supernatant set 2
[18] = molecular target: T3, recombinant soluble homotrimeric HA of …; assay: as above
[19] = molecular target: T4, recombinant soluble homotrimeric HA of …; assay: as above
[20] = molecular target: T4, recombinant soluble homotrimeric HA of …; assay: trimeric HA microarray, transfection supernatant set 5
[21] = molecular target: T1, recombinant soluble homotrimeric HA of …; assay: trimeric HA microarray, transfection supernatant set 2
[22] = molecular target: recombinant soluble homotrimeric HA of A/Hong Kong/2108/03 (H9N2) (Influenza A virus A/HK/2108/2003(H9N2)); assay: as above

Binder | Trimeric HA Binding: RLU [1] [RLU] | Trimeric HA Binding: RLU [2] [RLU] | Trimeric HA Binding: RLU [3] [RLU] | Trimeric HA Binding: RLU [4] [RLU] | Trimeric HA Binding: RLU [5] [RLU] | Trimeric HA Binding: RLU [6] [RLU] | Trimeric HA Binding: RLU [7] [RLU] | Trimeric HA Binding: RLU [8] [RLU] | Trimeric HA Binding: RLU [9] [RLU] | Trimeric HA Binding: RLU [10] [RLU] | Trimeric HA Binding: RLU [11] [RLU] | Trimeric HA Binding: RLU [12] [RLU] | Trimeric HA Binding: RLU [13] [RLU] | Trimeric HA Binding: RLU [17] [RLU] | Trimeric HA Binding: RLU [18] [RLU] | Trimeric HA Binding: RLU [19] [RLU] | Trimeric HA Binding: RLU [20] [RLU] | other results
B1 | 15600 | 2460 | 1550 | 6080 | 4390 | 1180 | 42500 | 1360 | 2570 | 47900 | 2190 | 984 | 1510 |  |  |  |  | 
B2 |  | 2860 | 1450 |  | 15700 | 871 | 53300 | 5330 | 8950 | 2560 | 3240 | 1050 | 3500 |  |  |  |  | 
B3 |  |  |  |  |  |  |  |  |  |  |  |  |  | 17800 | 21600 | 32500 |  | Trimeric HA Binding: RLU [14]: 19600 RLU; Trimeric HA Binding: RLU [15]: 21400 RLU; Trimeric HA Binding: RLU [16]: 34500 RLU
B4 | 53000 | 2430 | 1240 | 11400 | 3740 |  | 47100 | 955 | 40900 | 1730 | 33300 | 1080 | 2940 |  |  |  | 4610 | 
B5 |  |  |  |  |  |  |  |  |  |  |  |  |  | 19800 | 46000 | 49200 |  | Trimeric HA Binding: RLU [21]: 28400 RLU; Trimeric HA Binding: RLU [22]: 33600 RLU
B6 | 17600 | 2510 | 1430 | 13100 | 12900 | 43500 | 33100 | 28300 | 1830 | 2780 | 2630 | 2340 | 5880 |  |  |  | 2870 | 
B7 | 41000 | 8900 | 5170 | 4060 | 4370 | 1960 | 52400 | 8430 | 13700 | 6620 |  | 16000 | 2950 |  |  |  | 3350 | 
B8 |  |  |  |  |  |  |  |  |  |  |  |  |  | 17900 | 35800 | 30100 |  | Trimeric HA Binding: RLU [21]: 19300 RLU; Trimeric HA Binding: RLU [22]: 25500 RLU
